Reference: ChEMBL document CHEMBL2074002, “Functional analysis of a canalicular multispecific organic anion transporter cloned from rat liver” (J Biol Chem, 1998)

Substrate: N[C@@H](CCC(=O)N[C@H](CSc1ccc([N+](=O)[O-])cc1[N+](=O)[O-])C(=O)NCC(=O)O)C(=O)O
Assay: TP_TRANSPORTER: uptake in membrane vesicle from Mrp2-expressing NIH/3T3 cell
Format: functional, cell membranes, NIH3T3

B1: ATP-binding cassette sub-family C member 2 (Rattus norvegicus) (protein)
chain: MDKFCNSTFWDLSLLESPEADLPLCFEQTVLVWIPLGFLWLLAPWQLYSVYRSRTKRSSITKFYLAKQVFVVFLLILAAIDLSLALTEDTGQATVPPVRYTNPILYLCTWLLVLAVQHSRQWCVRKNSWFLSLFWILSVLCGVFQFQTLIRALLKDSKSNMAYSYLFFVSYGFQIVLLILTAFSGPSDSTQTPSVTASFLSSITFSWYDRTVLKGYKHPLTLEDVWDIDEGFKTRSVTSKFEAAMTKDLQKARQAFQRRLQKSQRKPEATLHGLNKKQSQSQDVLVLEEAKKKSEKTTKDYPKSWLIKSLFKTFHVVILKSFILKLIHDLLVFLNPQLLKLLIGFVKSSNSYVWFGYICAILMFAVTLIQSFCLQSYFQHCFVLGMCVRTTVMSSIYKKALTLSNLARKQYTIGETVNLMSVDSQKLMDATNYMQLVWSSVIQITLSIFFLWRELGPSILAGVGVMVLLIPVNGVLATKIRNIQVQNMKNKDKRLKIMNEILSGIKILKYFAWEPSFQEQVQGIRKKELKNLLRFGQLQSLLIFILQITPILVSVVTFSVYVLVDSANVLNAEKAFTSITLFNILRFPLSMLPMVTSSILQASVSVDRLERYLGGDDLDTSAIRRVSNFDKAVKFSEASFTWDPDLEATIQDVNLDIKPGQLVAVVGTVGSGKSSLVSAMLGEMENVHGHITIQGSTAYVPQQSWIQNGTIKDNILFGSEYNEKKYQQVLKACALLPDLEILPGGDMAEIGEKGINLSGGQKQRVSLARAAYQDADIYILDDPLSAVDAHVGKHIFNKVVGPNGLLAGKTRIFVTHGIHFLPQVDEIVVLGKGTILEKGSYRDLLDKKGVFARNWKTFMKHSGPEGEATVNNDSEAEDDDDGLIPTMEEIPEDAASLAMRRENSLRRTLSRSSRSSSRRGKSLKNSLKIKNVNVLKEKEKEVEGQKLIKKEFVETGKVKFSIYLKYLQAVGWWSILFIILFYGLNNVAFIGSNLWLSAWTSDSDNLNGTNNSSSHRDMRIGVFGALGLAQGICLLISTLWSIYACRNASKALHGQLLTNILRAPMRFFDTTPTGRIVNRFSGDISTVDDLLPQTLRSWMMCFFGIAGTLVMICMATPVFAIIIIPLSILYISVQVFYVATSRQLRRLDSVTKSPIYSHFSETVTGLPIIRAFEHQQRFLAWNEKQIDINQKCVFSWITSNRWLAIRLELVGNLVVFCSALLLVIYRKTLTGDVVGFVLSNALNITQTLNWLVRMTSEAETNIVAVERISEYINVENEAPWVTDKRPPADWPRHGEIQFNNYQVRYRPELDLVLKGITCNIKSGEKVGVVGRTGAGKSSLTNCLFRILESAGGQIIIDGIDVASIGLHDLRERLTIIPQDPILFSGSLRMNLDPFNKYSDEEVWRALELAHLRSFVSGLQLGLLSEVTEGGDNLSIGQRQLLCLGRAVLRKSKILVLDEATAAVDLETDSLIQTTIRKEFSQCTVITIAHRLHTIMDSDKIMVLDNGKIVEYGSPEELLSNRGSFYLMAKEAGIENVNHTEL
B1 was tested. Which Km did it give?
The Km was 0.175 µM.
